Laboratory results from patent US20260250737A1, “Engineered Luciferases and Luciferin Substrates” (Monod Bio, Inc., priority 2023, published 2026).

Test system: SmLux
Experiment: Computationally generated LgLux variants expressed in E. coli, tested in lysates with SmLux and substrate 1c
Type: biochemical
Conditions: 50 uM substrate 1c; for Fold change upon SmLux peptide addition: 20 uM SmLux; for Baseline Signal (Normalized by expression): before SmLux peptide addition
Protocol: LgLux sequences were designed computationally, and their activity measured as depicted schematically in FIG. 45.
A library of the computationally generated LgLux variants were expressed in E. coli and tested in lysates. 20 uM of SmLux and 50 uM of substrate 1c was used for the screening.
LgLux_4039 sequence is as set forth in SEQ ID NO:2773. MBIO-5103 through MBIO-5124, MBIO-5261 through MBIO-5295, MBIO-5101, and MBIO-5102 (SEQ ID NO:2815-SEQ ID NO:2873, respectively) are computationally generated LgLux. The sequences and activity of these LgLux are shown below in Table 21.
MBIO-5358 and MBIO-5360 through MBIO-5381 (SEQ ID NO:2774-SEQ ID NO:2796, respectively) are computationally generated LgLux.

B1: 5107 (protein)
chain: MTPEEIKANVEAFYAALASGDLEKAKALFDPGTTITLWDGTTFTSLEEFLAWFEKQFKASKDAKREIVSMKVEGDTVRVLVRLTYTKDGKEQVVDLLQLIKVV
In the case of B1, the “Fold change upon SmLux peptide addition” value is reported as 0.99 and the “Baseline Signal (Normalized by expression)” value is reported as 167.8.

B2: 5112 (protein)
chain: MTPEEIRANVRAFYAALASGDLEAAKALFDPGTTITLWDGTTFTSLEEFLAWFEKQFKASKDAKREIVSLEVEGDVVRVLVRLTYVKDGKEEVVDLLQLLKFV
In the case of B2, the “Fold change upon SmLux peptide addition” value is reported as 0.93 and the “Baseline Signal (Normalized by expression)” value is reported as 174.4.

B3: 5113 (protein)
chain: MTPEEIRANVEAFYAALASGDLEAAKALFDPGTTITLWDGTTFTSLEEFLAWFEKQFEASKDAKREILSLEIEGNTVRVLVRLTYTKDGKEQVVDLLQLLKFV
For B3, the “Fold change upon SmLux peptide addition” value was 1.15 and the “Baseline Signal (Normalized by expression)” value was 180.6.

B4: 5109 (protein)
chain: MTPEEIRANVKAFYAALASGDLEKAKALFDPGTTITLWDGTTFTSLEEFLAWFEKQFKASKDAKREIVSMEINGDTVRVLVRLTYTVDGEEKVVDLLQLLKFV
B4 was tested, and the “Fold change upon SmLux peptide addition” value was 0.98 and the “Baseline Signal (Normalized by expression)” value was 169.

B5: 5117 (protein)
chain: MTDEEIRANVRAFYAALASGDLETAKALFDPGTTITLWDGTTFTSLEEFLAWFEKQFKTSKDAKREIVSLEVEGDTVRVLVRLTYTKDGKEEVVDLLQLLKFV
In the case of B5, the “Fold change upon SmLux peptide addition” value is reported as 1.05 and the “Baseline Signal (Normalized by expression)” value is reported as 154.8.

B6: 5122 (protein)
chain: MTPEEIFANVKAFYAALASGDLAAAKALFDPGTTITLWDGTTFTSLDEFLAWFEKQFKASKDAKREILSMEVEGDTVRVLVRLTYVKDGKEEVVDLLQLIKWV
With B6 the “Fold change upon SmLux peptide addition” value was 1.04 and the “Baseline Signal (Normalized by expression)” value was 146.2.

B7: 5101 (protein)
chain: MSEEQIRQNLRRFYEALDSGDAITAASLFDPGVTITLWDGTTFTSVEEFREWFESQFSTSKDALREISSLEVRGDTVEVTVRLSFTRNGQKHTVDLLQLFKFVGGGGGGNRVVADRVYVNPTG
In the case of B7, the “Fold change upon SmLux peptide addition” value is reported as 0.87 and the “Baseline Signal (Normalized by expression)” value is reported as 229.6.

B8: 5289 (protein)
chain: MTPEEIRANVERFYAALASGDLAAAKALFDPGVTITLWDGTTFTSVEEFRAWFEEQFQTSKDALREIVSMEIDGDTVRVLVRLTFVRDGEEQEVDLLQLFKFV
In the case of B8, the “Fold change upon SmLux peptide addition” value is reported as 1.92 and the “Baseline Signal (Normalized by expression)” value is reported as 173.8.

B9: 5293 (protein)
chain: MTPEEIRANVRRFYAALASGDLATAEALFDPGVTITLWDGTTFTSVAEFRAWFEKQFKTSKDALREIESMEIEGDTVRVLVRLTFVRDGKEQVVDLLQLFKFV
For B9, the “Fold change upon SmLux peptide addition” value was 3.78 and the “Baseline Signal (Normalized by expression)” value was 166.2.

B10: 5291 (protein)
chain: MTPEEIRENVRRFYAALASGDLETAKALFDPGVTITLWDGTTFTSVEEFRAWFEEQFQTSKDALREIVSMEIEGDVVRVLVRLTFVRDGKEEVVDLLQLFKFV
In the case of B10, the “Fold change upon SmLux peptide addition” value is reported as 1.02 and the “Baseline Signal (Normalized by expression)” value is reported as 170.2.

B11: 5295 (protein)
chain: MTPEEIRANVRAFYAALASGDLAAAKALFDPGVTITLWDGTTFTSVEEFRAWFEEQFETSKDALREIVSMEVEGDTVRVLVRLTFTRNGEEKVVDLLQLFKFV
For B11, the “Fold change upon SmLux peptide addition” value was 1.28 and the “Baseline Signal (Normalized by expression)” value was 186.4.

B12: 5102 (protein)
chain: MSEEQIRQNLRRFYEALDSGDAITAASLFDPGVTITLWDGTTFTSVEEFREWFESQFSTSKDALREISSLEVRGDTVEVTVRLSFTRNGQKHTVDLLQLFKFVGNRVVADRVYVNPTG
For B12, the “Fold change upon SmLux peptide addition” value was 2.2 and the “Baseline Signal (Normalized by expression)” value was 2169.2.

B13: 5123 (protein)
chain: MTPEKIRENVENFYAALASGDLEKAKALFDPGTTITLWDGTTFTSLEEFLAWFEKQFKASKDAKREIKSLEIEGDTVKVLVRLTYTVNGKEKTVDLLQLLKFV
With B13 the “Fold change upon SmLux peptide addition” value was 1.09 and the “Baseline Signal (Normalized by expression)” value was 145.6.

B14: 5290 (protein)
chain: MTPEEIIENVRRFYAALASGDLETAKSLFDPGVTITLWDGTTFTSVEEFRAWFEAQFQTSKDALREIVSIEVEGDVVRVLVRLTFTRDGQTQEVDLLQLFKFV
In the case of B14, the “Fold change upon SmLux peptide addition” value is reported as 1.11 and the “Baseline Signal (Normalized by expression)” value is reported as 162.2.

B15: 5116 (protein)
chain: MTPEEIRANVERFYAALASGDLDTAKALFDPGTTITLWDGTTFTSLEEFLAWFEKQFKASKDAKREIVELEIEGNVVRVLVRLTYVKDGKEQVVDLLQLLKFV
With B15 the “Fold change upon SmLux peptide addition” value was 1.11 and the “Baseline Signal (Normalized by expression)” value was 162.6.

B16: 5121 (protein)
chain: MTPEEIKENVKKFYEALASGDLETAKSLFDPGTTITLWDGTTFTSLEEFLAWFEKQFDASKDAKREIVSMEIKGNEVKVLVRLTYTKDGKEQTVDLLQLLKFV
With B16 the “Fold change upon SmLux peptide addition” value was 1.29 and the “Baseline Signal (Normalized by expression)” value was 126.6.

B17: 5292 (protein)
chain: MTPEEIIENVKNFYAALASGDLEKAKALFDPGVTITLWDGTTFTSVEEFRKWFEEQFKTSKDALREIKSIEVEGDVVRVLVRLTFVRDGEVQEVDLLQLFKFV
For B17, the “Fold change upon SmLux peptide addition” value was 6.75 and the “Baseline Signal (Normalized by expression)” value was 168.6.

B18: 5108 (protein)
chain: MTPEEIIENVKAFYAALASGDLEAAKALFDPGTTITLWDGTTFTSLEEFLEWFEKQFEASKDAKREIKSIEVEGNVVKVLVRLTYVKDGKEKVVDLLQLLKFV
For B18, the “Fold change upon SmLux peptide addition” value was 0.92 and the “Baseline Signal (Normalized by expression)” value was 167.4.

B19: 5120 (protein)
chain: MTPEEIRENVLRFYEALASGDLETAKALFDPGTTITLWDGTTFTSLEEFLAWFEEQFDTSKDAKREILSLEIEGDVVRVLVRLTYVKDGEEKVVDLLQLLKWV
With B19 the “Fold change upon SmLux peptide addition” value was 1.09 and the “Baseline Signal (Normalized by expression)” value was 148.4.

B20: 5294 (protein)
chain: MTPEEIRANVRAFYAALASGDLEAAKALFDPGVTITLWDGTTFTSVEEFRAWFEEQFQTSKDALREIESLEVEGDVVRVLVRLTFTRDGKVEEVDLLQLFKFV
For B20, the “Fold change upon SmLux peptide addition” value was 1.46 and the “Baseline Signal (Normalized by expression)” value was 175.2.

B21: 5105 (protein)
chain: MTPEEIIANVKKFYEALASGDLATAKSLFDPGTTITLWDGTTFTSLEEFLAWFEKQFKASKDAKREIVSIEVDGNVVKVLVRLTYTVDGKEKVVDLLQLLKFV
B21 was tested, and the “Fold change upon SmLux peptide addition” value was 1 and the “Baseline Signal (Normalized by expression)” value was 167.4.

B22: 5115 (protein)
chain: MTPEEIIANVKKFYAALASGDLETAKALFDPGTTITLWDGTTFTSLEEFLAWFEKQFEASKDAKREIVSIEVKGNTVKVLVRLTYVKDGKEQVVDLLQLLKFV
B22 was tested, and the “Fold change upon SmLux peptide addition” value was 3.07 and the “Baseline Signal (Normalized by expression)” value was 165.

B23: 5110 (protein)
chain: MTPEEIIENVKKFYEALASGDLETAKSLFDPGTTITLWDGTTFTSLEEFLEWFEKQFEASKDAKREILSIEVEGNVVKVLVRLTYTKDGKEKVVDLLQLLKFV
With B23 the “Fold change upon SmLux peptide addition” value was 0.97 and the “Baseline Signal (Normalized by expression)” value was 167.6.

B24: 5118 (protein)
chain: MTPEEIIANVKAFYAALASGDLAAAKALFDPGTTITLWDGTTFTSLDEFLAWFEKQFKASKDAKREILDIEVEGDVVRVLVRLTYTVDGKEKVVDLLQLLKFV
In the case of B24, the “Fold change upon SmLux peptide addition” value is reported as 1.05 and the “Baseline Signal (Normalized by expression)” value is reported as 152.

B25: 5106 (protein)
chain: MTEEEIIANVEKFYAALASGDLETAKALFDPGTTITLWDGTTFTSLEEFLAWFEKQFKASKDAKREIVSIEVEGDTVKVLVRLTYTVDGKEKVVDLLQLLKFV
With B25 the “Fold change upon SmLux peptide addition” value was 1 and the “Baseline Signal (Normalized by expression)” value was 169.8.

B26: 5114 (protein)
chain: MTPEEIIANVKNFYAALASGDLEAAKALFDPGTTITLWDGTTFTSLEEFLAWFEKQFKASKDAKREIVSMEVEGNVVKVLVRLTYTVDGEEKVVDLLQLLKFV
In the case of B26, the “Fold change upon SmLux peptide addition” value is reported as 1.38 and the “Baseline Signal (Normalized by expression)” value is reported as 271.8.

B27: 5111 (protein)
chain: MTPEEIRANVEAFYAALASGDLEAAKALFDPGTTITLWDGTTFTSLEEFLAWFEKQFETSKDAKREIVSLEIEGDTVRVLVRLTYTKNGEVKEVDLLQLLKFV
For B27, the “Fold change upon SmLux peptide addition” value was 1.01 and the “Baseline Signal (Normalized by expression)” value was 166.2.

B28: 5119 (protein)
chain: MTPEQIRANVERFYAALASGDLETAKALFDPGTTITLWDGTTFTSLEEFLAWFEKQFKASKDAKREIVSLEIEGDTVRVLVRLTYTVDGEVKEVDLLQLLKFV
With B28 the “Fold change upon SmLux peptide addition” value was 0.98 and the “Baseline Signal (Normalized by expression)” value was 155.6.
